Biological target: T1, human FcγRIIIa(F) (human, UniProt P08637 17-208, limits assumed)
T1 construct: also called FcgRIIIaF; FcγRIIIa allotype F158
Assay: SPR (Biacore), antibody captured, FcγR as analyte
Procedure: Interaction between each modified antibody and Fcγ receptor prepared in the manner described above was analyzed using the Biacore T100 (GE Healthcare), Biacore T200 (GE Healthcare), Biacore A100 or Biacore 4000. HBS-EP+ (GE Healthcare) was used for the running buffer, and measurements were carried out at 25° C. The chips used were chips in which antigen peptides, Protein A (Thermo Scientific), Protein A/G (Thermo Scientific) or Protein L (ACTIGEN or BioVision) were immobilized on the Series S Sensor Chip CM5 (GE Healthcare) or Series S Sensor Chip CM4 (GE Healthcare) by amine coupling, or chips in which preliminarily biotinylated antigen peptides were allowed to interact and then immobilized on the Series S Sensor Chip SA (certified) (GE Healthcare). The target antibodies were captured on these sensor chips, Fcγ receptor diluted with the running buffer was allowed to interact, followed by measurement of the amount of bound antibody. The amounts bound were compared between antibodies. However, since the amount of Fcγ receptor bound depends on the amount of captured antibody, the values used for comparison were first corrected by dividing the amount of Fcγ receptor bound by the captured amount of each antibody. Through reaction with 10 mM glycine-HCl at pH 1.5, the sensor chips were regenerated by washing off antibody captured on the sensor chips and used repeatedly.
Binding strength was evaluated according to the following method based on the results of analyzing the interaction with each FcγR. […] That value was then further multiplied by 100, and the resulting value was used as an indicator of relative binding activity to each FcγR.

T1 sequence (P08637 other isoform, or with tags, fused parts or gaps limits assumed): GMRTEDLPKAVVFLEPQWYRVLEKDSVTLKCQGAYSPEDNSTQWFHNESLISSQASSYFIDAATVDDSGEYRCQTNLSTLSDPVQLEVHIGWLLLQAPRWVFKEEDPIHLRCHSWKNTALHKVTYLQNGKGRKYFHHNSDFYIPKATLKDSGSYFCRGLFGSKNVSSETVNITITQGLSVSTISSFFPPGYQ

Binder	relative binding activity (amount bound / amount bound by GpH7-B3/GpL16-k0 x100)
GpH7-B3 P271R / GpL16-k0 (antibody, human IgG1, B3 variant: anti-glypican-3 IgG1 (constant region B3 = G1d with K439E) with one substitution, EU numbering; also called B3 variant P271R; copies: 2 + 2) heavy: not shown light: DIVMTQSPLSLPVTPGEPASISCQASESLVHSNRNTYLHWYLQKPGQSPQLLIYKVSNRFSGVPDRFSGSGSGTDFTLKISRVEAEDVGVYYCSQNTHVPPTFGQGTKVEIE	76 % of GpH7-B3/GpL16-k0
GpH7-B3 S298R / GpL16-k0 (antibody, human IgG1, B3 variant: anti-glypican-3 IgG1 (constant region B3 = G1d with K439E) with one substitution, EU numbering; also called B3 variant S298R; copies: 2 + 2) heavy: not shown light: DIVMTQSPLSLPVTPGEPASISCQASESLVHSNRNTYLHWYLQKPGQSPQLLIYKVSNRFSGVPDRFSGSGSGTDFTLKISRVEAEDVGVYYCSQNTHVPPTFGQGTKVEIE	20 % of GpH7-B3/GpL16-k0
GpH7-B3 Q295S / GpL16-k0 (antibody, human IgG1, B3 variant: anti-glypican-3 IgG1 (constant region B3 = G1d with K439E) with one substitution, EU numbering; also called B3 variant Q295S; copies: 2 + 2) heavy: not shown light: DIVMTQSPLSLPVTPGEPASISCQASESLVHSNRNTYLHWYLQKPGQSPQLLIYKVSNRFSGVPDRFSGSGSGTDFTLKISRVEAEDVGVYYCSQNTHVPPTFGQGTKVEIE	87 % of GpH7-B3/GpL16-k0
GpH7-B3 Q295W / GpL16-k0 (antibody, human IgG1, B3 variant: anti-glypican-3 IgG1 (constant region B3 = G1d with K439E) with one substitution, EU numbering; also called B3 variant Q295W; copies: 2 + 2) heavy: not shown light: DIVMTQSPLSLPVTPGEPASISCQASESLVHSNRNTYLHWYLQKPGQSPQLLIYKVSNRFSGVPDRFSGSGSGTDFTLKISRVEAEDVGVYYCSQNTHVPPTFGQGTKVEIE	10 % of GpH7-B3/GpL16-k0
GpH7-B3 Q295N / GpL16-k0 (antibody, human IgG1, B3 variant: anti-glypican-3 IgG1 (constant region B3 = G1d with K439E) with one substitution, EU numbering; also called B3 variant Q295N; copies: 2 + 2) heavy: not shown light: DIVMTQSPLSLPVTPGEPASISCQASESLVHSNRNTYLHWYLQKPGQSPQLLIYKVSNRFSGVPDRFSGSGSGTDFTLKISRVEAEDVGVYYCSQNTHVPPTFGQGTKVEIE	68 % of GpH7-B3/GpL16-k0
GpH7-B3 Y296G / GpL16-k0 (antibody, human IgG1, B3 variant: anti-glypican-3 IgG1 (constant region B3 = G1d with K439E) with one substitution, EU numbering; also called B3 variant Y296G; copies: 2 + 2) heavy: not shown light: DIVMTQSPLSLPVTPGEPASISCQASESLVHSNRNTYLHWYLQKPGQSPQLLIYKVSNRFSGVPDRFSGSGSGTDFTLKISRVEAEDVGVYYCSQNTHVPPTFGQGTKVEIE	21 % of GpH7-B3/GpL16-k0
GpH7-B3 Y296R / GpL16-k0 (antibody, human IgG1, B3 variant: anti-glypican-3 IgG1 (constant region B3 = G1d with K439E) with one substitution, EU numbering; also called B3 variant Y296R; copies: 2 + 2) heavy: not shown light: DIVMTQSPLSLPVTPGEPASISCQASESLVHSNRNTYLHWYLQKPGQSPQLLIYKVSNRFSGVPDRFSGSGSGTDFTLKISRVEAEDVGVYYCSQNTHVPPTFGQGTKVEIE	38 % of GpH7-B3/GpL16-k0
GpH7-B3 Q295D / GpL16-k0 (antibody, human IgG1, B3 variant: anti-glypican-3 IgG1 (constant region B3 = G1d with K439E) with one substitution, EU numbering; also called B3 variant Q295D; copies: 2 + 2) heavy: not shown light: DIVMTQSPLSLPVTPGEPASISCQASESLVHSNRNTYLHWYLQKPGQSPQLLIYKVSNRFSGVPDRFSGSGSGTDFTLKISRVEAEDVGVYYCSQNTHVPPTFGQGTKVEIE	64 % of GpH7-B3/GpL16-k0
GpH7-B3 P271W / GpL16-k0 (antibody, human IgG1, B3 variant: anti-glypican-3 IgG1 (constant region B3 = G1d with K439E) with one substitution, EU numbering; also called B3 variant P271W; copies: 2 + 2) heavy: not shown light: DIVMTQSPLSLPVTPGEPASISCQASESLVHSNRNTYLHWYLQKPGQSPQLLIYKVSNRFSGVPDRFSGSGSGTDFTLKISRVEAEDVGVYYCSQNTHVPPTFGQGTKVEIE	57 % of GpH7-B3/GpL16-k0
GpH7-B3 Q295H / GpL16-k0 (antibody, human IgG1, B3 variant: anti-glypican-3 IgG1 (constant region B3 = G1d with K439E) with one substitution, EU numbering; also called B3 variant Q295H; copies: 2 + 2) heavy: not shown light: DIVMTQSPLSLPVTPGEPASISCQASESLVHSNRNTYLHWYLQKPGQSPQLLIYKVSNRFSGVPDRFSGSGSGTDFTLKISRVEAEDVGVYYCSQNTHVPPTFGQGTKVEIE	52 % of GpH7-B3/GpL16-k0
GpH7-B3 S298K / GpL16-k0 (antibody, human IgG1, B3 variant: anti-glypican-3 IgG1 (constant region B3 = G1d with K439E) with one substitution, EU numbering; also called B3 variant S298K; copies: 2 + 2) heavy: not shown light: DIVMTQSPLSLPVTPGEPASISCQASESLVHSNRNTYLHWYLQKPGQSPQLLIYKVSNRFSGVPDRFSGSGSGTDFTLKISRVEAEDVGVYYCSQNTHVPPTFGQGTKVEIE	25 % of GpH7-B3/GpL16-k0
GpH7-B3 Q295R / GpL16-k0 (antibody, human IgG1, B3 variant: anti-glypican-3 IgG1 (constant region B3 = G1d with K439E) with one substitution, EU numbering; also called B3 variant Q295R; copies: 2 + 2) heavy: not shown light: DIVMTQSPLSLPVTPGEPASISCQASESLVHSNRNTYLHWYLQKPGQSPQLLIYKVSNRFSGVPDRFSGSGSGTDFTLKISRVEAEDVGVYYCSQNTHVPPTFGQGTKVEIE	52 % of GpH7-B3/GpL16-k0
GpH7-B3 Q295G / GpL16-k0 (antibody, human IgG1, B3 variant: anti-glypican-3 IgG1 (constant region B3 = G1d with K439E) with one substitution, EU numbering; also called B3 variant Q295G; copies: 2 + 2) heavy: not shown light: DIVMTQSPLSLPVTPGEPASISCQASESLVHSNRNTYLHWYLQKPGQSPQLLIYKVSNRFSGVPDRFSGSGSGTDFTLKISRVEAEDVGVYYCSQNTHVPPTFGQGTKVEIE	55 % of GpH7-B3/GpL16-k0
GpH7-B3 P271T / GpL16-k0 (antibody, human IgG1, B3 variant: anti-glypican-3 IgG1 (constant region B3 = G1d with K439E) with one substitution, EU numbering; also called B3 variant P271T; copies: 2 + 2) heavy: not shown light: DIVMTQSPLSLPVTPGEPASISCQASESLVHSNRNTYLHWYLQKPGQSPQLLIYKVSNRFSGVPDRFSGSGSGTDFTLKISRVEAEDVGVYYCSQNTHVPPTFGQGTKVEIE	31 % of GpH7-B3/GpL16-k0

Results, then the binder that gave them:

relative binding activity (amount bound / amount bound by GpH7-B3/GpL16-k0 x100)	Binder
59 % of GpH7-B3/GpL16-k0	GpH7-B3 S298G / GpL16-k0 (antibody, human IgG1, B3 variant: anti-glypican-3 IgG1 (constant region B3 = G1d with K439E) with one substitution, EU numbering; also called B3 variant S298G; copies: 2 + 2) heavy: not shown light: DIVMTQSPLSLPVTPGEPASISCQASESLVHSNRNTYLHWYLQKPGQSPQLLIYKVSNRFSGVPDRFSGSGSGTDFTLKISRVEAEDVGVYYCSQNTHVPPTFGQGTKVEIE
62 % of GpH7-B3/GpL16-k0	GpH7-B3 P271S / GpL16-k0 (antibody, human IgG1, B3 variant: anti-glypican-3 IgG1 (constant region B3 = G1d with K439E) with one substitution, EU numbering; also called B3 variant P271S; copies: 2 + 2) heavy: not shown light: DIVMTQSPLSLPVTPGEPASISCQASESLVHSNRNTYLHWYLQKPGQSPQLLIYKVSNRFSGVPDRFSGSGSGTDFTLKISRVEAEDVGVYYCSQNTHVPPTFGQGTKVEIE
0 % of GpH7-B3/GpL16-k0	GpH7-B3 S298P / GpL16-k0 (antibody, human IgG1, B3 variant: anti-glypican-3 IgG1 (constant region B3 = G1d with K439E) with one substitution, EU numbering; also called B3 variant S298P; copies: 2 + 2) heavy: not shown light: DIVMTQSPLSLPVTPGEPASISCQASESLVHSNRNTYLHWYLQKPGQSPQLLIYKVSNRFSGVPDRFSGSGSGTDFTLKISRVEAEDVGVYYCSQNTHVPPTFGQGTKVEIE
46 % of GpH7-B3/GpL16-k0	GpH7-B3 Q295F / GpL16-k0 (antibody, human IgG1, B3 variant: anti-glypican-3 IgG1 (constant region B3 = G1d with K439E) with one substitution, EU numbering; also called B3 variant Q295F; copies: 2 + 2) heavy: not shown light: DIVMTQSPLSLPVTPGEPASISCQASESLVHSNRNTYLHWYLQKPGQSPQLLIYKVSNRFSGVPDRFSGSGSGTDFTLKISRVEAEDVGVYYCSQNTHVPPTFGQGTKVEIE
33 % of GpH7-B3/GpL16-k0	GpH7-B3 P271Y / GpL16-k0 (antibody, human IgG1, B3 variant: anti-glypican-3 IgG1 (constant region B3 = G1d with K439E) with one substitution, EU numbering; also called B3 variant P271Y; copies: 2 + 2) heavy: not shown light: DIVMTQSPLSLPVTPGEPASISCQASESLVHSNRNTYLHWYLQKPGQSPQLLIYKVSNRFSGVPDRFSGSGSGTDFTLKISRVEAEDVGVYYCSQNTHVPPTFGQGTKVEIE
11 % of GpH7-B3/GpL16-k0	GpH7-B3 S298W / GpL16-k0 (antibody, human IgG1, B3 variant: anti-glypican-3 IgG1 (constant region B3 = G1d with K439E) with one substitution, EU numbering; also called B3 variant S298W; copies: 2 + 2) heavy: not shown light: DIVMTQSPLSLPVTPGEPASISCQASESLVHSNRNTYLHWYLQKPGQSPQLLIYKVSNRFSGVPDRFSGSGSGTDFTLKISRVEAEDVGVYYCSQNTHVPPTFGQGTKVEIE
71 % of GpH7-B3/GpL16-k0	GpH7-B3 S298Y / GpL16-k0 (antibody, human IgG1, B3 variant: anti-glypican-3 IgG1 (constant region B3 = G1d with K439E) with one substitution, EU numbering; also called B3 variant S298Y; copies: 2 + 2) heavy: not shown light: DIVMTQSPLSLPVTPGEPASISCQASESLVHSNRNTYLHWYLQKPGQSPQLLIYKVSNRFSGVPDRFSGSGSGTDFTLKISRVEAEDVGVYYCSQNTHVPPTFGQGTKVEIE
21 % of GpH7-B3/GpL16-k0	GpH7-B3 Y296K / GpL16-k0 (antibody, human IgG1, B3 variant: anti-glypican-3 IgG1 (constant region B3 = G1d with K439E) with one substitution, EU numbering; also called B3 variant Y296K; copies: 2 + 2) heavy: not shown light: DIVMTQSPLSLPVTPGEPASISCQASESLVHSNRNTYLHWYLQKPGQSPQLLIYKVSNRFSGVPDRFSGSGSGTDFTLKISRVEAEDVGVYYCSQNTHVPPTFGQGTKVEIE
49 % of GpH7-B3/GpL16-k0	GpH7-B3 Q295Y / GpL16-k0 (antibody, human IgG1, B3 variant: anti-glypican-3 IgG1 (constant region B3 = G1d with K439E) with one substitution, EU numbering; also called B3 variant Q295Y; copies: 2 + 2) heavy: not shown light: DIVMTQSPLSLPVTPGEPASISCQASESLVHSNRNTYLHWYLQKPGQSPQLLIYKVSNRFSGVPDRFSGSGSGTDFTLKISRVEAEDVGVYYCSQNTHVPPTFGQGTKVEIE

Reference: patent publication US20140105889A1 (published 2014)
